The target of the series is RNA polymerase holoenzyme (beta, beta', alpha, omega, sigma) (Escherichia coli) (UniProt P0A8V2+P0A8T7+P0A7Z4+P0A800+P00579). Put plainly: EMSA. The note with it: 40 mM Hepes-KOH pH 8, 50 mM KCl, 10 mM Mg acetate, 0.5 mM DTT, 0.005% NP40, 50 uM ATP, 30 C; ~0.3 pmol DNA and 7 pmol RNAP in 200 uL; time course, heparin …. (In general: In EMSA bound probe runs differently from free probe, usually more slowly.)

As to “GTGCTGCGAAATCATCGGTGTAAATAGGGCTATATGCCGCGTCTTTTCTGGCTAATTTTATGAAAAGATATTTATTGGCGGCACAAAATAAAGAACAATTTTGAATTCCTTACATTCCTGGCTATTGCACAACTGAATTTAAGGCTCTATTATTACCTCAACAAACCACCCCAATATAAGTTTGAGATTACTACAATGAGCGAAGCACTTAAAATTCTGAA (double strand) [hns promoter fragment, 221 bp (-159 to +62)]”, the binding result was “binds”.

Source of the values: PMC7601328.
